Laboratory results: the nanobody polyreactivity screen of Harvey et al. (2022)

Test: yeast display, Sf9 membrane polyspecificity reagent, FACS + sequencing; frameworks hold sequencing errors
Outline: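 Using colony PCR, genes from sorted yeast display clones were amplified, then sequenced on MiSeq at 2 × 250 and filtered by CDR length. The clones had been stained with 10% biotinylated, detergent-solubilized Sf9 membrane reagent for 1 hour at 4 °C and sorted by FACS into low and high (top ~1%) gates on anti-HA and streptavidin fluorescence. Polyreactivity labels come from the gate of origin.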

## QVQLVESVGGLVQAGGSLRLSCAASGIIFSYYAMGWYRQPPGKERELVAVISSGGGSTYYADSVKGRFTISRDNAKNTVYLQMNSLKPDDTAVYYCNADRVDRELFTFDYWGQGTQVTVSS
  polyreactivity (PSR sort gate): high polyreactivity

## QVQLVETGGGLVHAGGSLRLSCAASGSIFGYYTMGWYIQAPGKERELFAAITYSGGSTYYADSVKGRFTISRDNAKNTVYLQMNSLKPDDTAVYYCNAKSAAHRYVRRHDYWGQGTQVTVSS
  polyreactivity (PSR sort gate): low polyreactivity

## QVQIVESGGGLVQPGGSLRLSCAASGITFYKYAMGWYRPAPGKERELLAAISKSGGRTYYADSVKGRFTISRDNAKNTVYLQMNSLKPEDTAVYYCNAQPNYAYHGEDDYWGQGNQVTVSS
  polyreactivity (PSR sort gate): high polyreactivity

## QVQLVESGGGLVQAGGSLRLSCAASGLTFWAYAMGWYRQEPGKEREFVAAISWSVDSTYYADSVKGRFTISRDNAKNTVYLQMNSLKPEDTAVYYCAAEWYYVYIAPYRYYYRGQGTQVTVSS
  polyreactivity (PSR sort gate): low polyreactivity

## QVQLVESGGGLFQAGGSLRLSCAASGIIFYHYAMGWYRQAPGKERELVAAITRSGSRTYYADSVKGRFTISRDNAKNTVYLQLNSLKPEDTAVYYCAYRRRWYGIRNYYWGQGTQVTVSS
  polyreactivity (PSR sort gate): high polyreactivity

## QVQLVESGGGLVQAGGSLRLSCAGSGSTFRSNALGWYRQEPGKVRELVAAISLRGGSTDYADSVKGRFTISRDNAKNTVYLQMNSLTPEDTAVYFCAKVSKRVGFPTAMNYWGHGTQVTVSS
  polyreactivity (PSR sort gate): high polyreactivity

## QVQLLESGGGLVQAGGSLRLSCAASGSTFPWYTMGWYRQAPGKERELVAPISNGGSTNYADSVKGRFTISRDNAKNTVYLQMNSLIPEDTAVYYCNARIPPYRWYQVSRGHGYWGQGTQVTVSS
  polyreactivity (PSR sort gate): high polyreactivity

## QVQLVESGGGLVHAGGSLRLSCAASGSIFYRYAKGWYIQAPGKERDLVAAITYSGGRTYYADSVKGRFTISRDNAKNSVYLKMNILKPEDTAVYYCAAEKQSYGSPKGYDYWGQGTQVTVSS
  polyreactivity (PSR sort gate): low polyreactivity

## QVHLVESGGGLVQAGGSLRLSCAASGRIFRVYAMGWYRQAPGKERELVAAIRWSTGSTYYADSVKGRFTISRDIAKNTVYLHMNSLKPEDTAVYYCASYYYSSCSKFDYWGQGTQVTVSS
  polyreactivity (PSR sort gate): high polyreactivity

## QVHLVESGGGLVQAGGSLRLSSAASGRTFTAYTMGSYRQAPGKEREMVASISSGVTYADSVKGRFTISRDNAKNTVYLQMNSLKTVDTAVYYCAARLWYVQGYVPYVHHRFDYWGQGTQVTVSS
  polyreactivity (PSR sort gate): low polyreactivity

## QVQLVESGGGLVQAGGSLRLSCAASGRTFRGNDMGWYRQAPGKERELVAAISWSGGGTYYADSVKGRFTISRDNAKNTVYLQMNSLKPEDTAVYYCAADLPHFRYYYWGQGTQVTVSS
  polyreactivity (PSR sort gate): low polyreactivity

## QVQLVESGGGLGQAGGSLRLSCAASGRTFDNYAMGWYRQAPGKERELVARITDTGGSTYYADSVKGRFTISRVNAKNTVYLQMNSLKPEDTAVYYCAAVSYPFAWYWLYYYWGQGTQVTVSS
  polyreactivity (PSR sort gate): low polyreactivity

## QVQVVESGGGLVQAGGSLRLSCAASGFIFYVYAMGWYTQAPGKERELVAAISKRSGGTRYADSVKGRFTISRDNAKNTVYLQMNSLKPEDTAVYYCNKYGQVPGYFSLDYWGQGTQVTVSS
  polyreactivity (PSR sort gate): high polyreactivity

## QVQLVESGGGLVQAGGSLRLSCAASGSIFNRNAMGWYRQARGKERELVAAITGSGGRTYYADSVKGRFTISRDNAKNTVYLQMNSLKPEDTAVYYCAARWGYYRYYIFDYWGQGTQVTVSS
  polyreactivity (PSR sort gate): high polyreactivity

## QVQLVESGGGLVQAGGSLRISCAASGRIFDYYAMGWYRQAPGKERELVAAISYSGGSTHYADSVKGRFTISRDNAKNTVYLQMNSLKPEDTAVYYCAGWAWSGVEYDYWGQGTQVTVSS
  polyreactivity (PSR sort gate): low polyreactivity

## QVQLVESWGGLVQAGGSLRLSCAASGSIFAINAMGWYRQAPGTERELVAAIRSGGRTYYADSVKGRFTISRDNAKNTVYLQMNSLKPEDTAVYYCNAGGKWIGSDYCGQGTQVTVSS
  polyreactivity (PSR sort gate): high polyreactivity

## QVQLVESGGGLVHAGGSLRLSCAASGSIFYYYAMGWYRPAPGKERELVAAIYNGGSTYYADSVKGRFTISRDNAKNTVYLEMNSLKPEDTAVYYCNAGYSYWYRDLGYDSWGQGTQVTVSS
  polyreactivity (PSR sort gate): low polyreactivity
